The text below walks through data of US20240400654A1.

Assay [1] concerns the target HRgpA-6H (Porphyromonas gingivalis) (UniProt P28784). Put plainly: ELISA, FASEBA screening, coated HRgpA-6H 0.0625 ug/ml. A general note: An ELISA detects its analyte on a solid surface through an enzyme-linked reagent.
The target is the same in assay [2]. Nature of the assay: ELISA, FASEBA screening, coated HRgpA-6H; variant OD over parental WT Fab OD.
Assay [3] has the same target. Nature of the assay: SPR Biacore 8K, 25 C; table lists HRgpA-6H as ligand, antibody as analyte. A general note: In SPR one partner is held on a chip, and binding of the other changes the refractive index at the surface.
Assay [4] has the same target. Nature of the assay: SPR Biacore 8K; table lists HRgpA-6H as ligand, antibody as analyte.

Residue numbers refer to the chain shown, from its start. Numbers in names are those of the source. Where “and” joins values, the source holds several entries; their conditions need not be identical. Equal entries are not always repeated.

B1: KB001 parental mouse Fab FASEBA variant VH F101S (Fab, V domains shown)
VH: EVQLKQSGPGLVAPSQSLSITCTVSGFSLSIYSVHWVRQPPGKGLEWLGMIWGGGSSDYNSALKSRLSISKDNSKSQVFLKMNSLQTDDTAMYYCARNGNSYAMDYWGQGTSVTVSS
VL: QIVLTQSPAIMSASLGERVTMTCTASSSVSSSFLHWYQQKPGSSPQLWIYSTSNLASGVPARFSGSGSGTSYSLTISSMEAEDAATYYCHQYHHSPYIYTFGGGTKLEIK
In the case of B1, the OD450 nm in assay [1] was 0.678 and 0.725. Also, the Ratio OD(Variant)/OD(WT) in assay [2] was 0.8 and 0.856.

B2: KB001 parental mouse Fab FASEBA variant VH A103K (Fab, V domains shown)
VH: B1 VH with S101F, A103K
VL: B1 VL
In turn, B2 had an OD450 nm in assay [1] of 0.723. The Ratio OD(Variant)/OD(WT) in assay [2] came to 0.839.

B3: KB001 parental mouse Fab FASEBA variant VH M104V (Fab, V domains shown)
VH: B1 VH with S101F, M104V
VL: B1 VL
B3 yielded an OD450 nm in assay [1] of 0.654. Moreover, the Ratio OD(Variant)/OD(WT) in assay [2] worked out at 0.85.

B4: KB001 parental mouse Fab FASEBA variant VH Y106Q (Fab, V domains shown)
VH: B1 VH with S101F, Y106Q
VL: B1 VL
B4 gave an OD450 nm in assay [1] of 0.768. In addition, the Ratio OD(Variant)/OD(WT) in assay [2] is 0.999.

B5: KB001 parental mouse Fab FASEBA variant VH F101W (Fab, V domains shown)
VH: B1 VH with S101W
VL: B1 VL
Regarding B5, the OD450 nm in assay [1] is 0.825 and 0.828 and 0.802. For the same molecule, the Ratio OD(Variant)/OD(WT) in assay [2] was 0.974 and 0.978 and 0.947.

B6: KB001 parental mouse Fab FASEBA variant VH A103V (Fab, V domains shown)
VH: B1 VH with S101F, A103V
VL: B1 VL
B6: the OD450 nm in assay [1] was 0.849 and 0.807. Also, the Ratio OD(Variant)/OD(WT) in assay [2] was 0.985 and 0.936.

B7: KB001 parental mouse Fab FASEBA variant VH Y106K (Fab, V domains shown)
VH: B1 VH with S101F, Y106K
VL: B1 VL
In assay [1], B7 came in with an OD450 nm of 0.767. In assay [2], the Ratio OD(Variant)/OD(WT) stood at 0.997.

B8: KB001 parental mouse Fab FASEBA variant VH M104L (Fab, V domains shown)
VH: B1 VH with S101F, M104L
VL: B1 VL
B8: in assay [1], the OD450 nm came out at 0.786. Also, the Ratio OD(Variant)/OD(WT) in assay [2] was determined as 0.904.

B9: KB001 parental mouse Fab FASEBA variant VH A103C (Fab, V domains shown)
VH: B1 VH with S101F, A103C
VL: B1 VL
B9: in assay [1], the OD450 nm is 0.77. In addition, the Ratio OD(Variant)/OD(WT) in assay [2] stood at 0.893.

B10: KB001 parental mouse Fab FASEBA variant VH Y106D (Fab, V domains shown)
VH: B1 VH with S101F, Y106D
VL: B1 VL
As to B10, the OD450 nm in assay [1] stood at 0.675. Further, the Ratio OD(Variant)/OD(WT) in assay [2] is 0.878.

B11: KB001 parental mouse Fab FASEBA variant VH F101L (Fab, V domains shown)
VH: B1 VH with S101L
VL: B1 VL
In turn, B11 had an OD450 nm in assay [1] of 0.681. Besides, the Ratio OD(Variant)/OD(WT) in assay [2] worked out at 0.804.

B12: KB001 parental mouse Fab FASEBA variant VH A103M (Fab, V domains shown)
VH: B1 VH with S101F, A103M
VL: B1 VL
As for B12, the OD450 nm in assay [1] came to 0.811. The Ratio OD(Variant)/OD(WT) in assay [2] stood at 0.941.

B13: KB001 parental mouse Fab FASEBA variant VH A103I (Fab, V domains shown)
VH: B1 VH with S101F, A103I
VL: B1 VL
For B13, in assay [1], the OD450 nm was 0.695 and 0.693. Besides, in assay [2], the Ratio OD(Variant)/OD(WT) was 0.806 and 0.804.

B14: KB001 parental mouse Fab FASEBA variant VH A103G (Fab, V domains shown)
VH: B1 VH with S101F, A103G
VL: B1 VL
B14: in assay [1], the OD450 nm is 0.815 and 0.804 and 0.755. For the same molecule, the Ratio OD(Variant)/OD(WT) in assay [2] is 0.945 and 0.933 and 0.876.

B15: KB001 parental mouse Fab FASEBA variant VH Y106I (Fab, V domains shown)
VH: B1 VH with S101F, Y106I
VL: B1 VL
In the case of B15, in assay [1], the OD450 nm is 0.73 and 0.728 and 0.764. Besides, in assay [2], the Ratio OD(Variant)/OD(WT) is 0.949 and 0.947 and 0.993.

B16: KB001 parental mouse Fab FASEBA variant VH Y106H (Fab, V domains shown)
VH: B1 VH with S101F, Y106H
VL: B1 VL
Take B16: the OD450 nm in assay [1] was 0.722. For the same molecule, in assay [2], the Ratio OD(Variant)/OD(WT) worked out at 0.939.

B17: KB001 parental mouse Fab FASEBA variant VH F101M (Fab, V domains shown)
VH: B1 VH with S101M
VL: B1 VL
In turn, B17 showed an OD450 nm in assay [1] of 0.755. Moreover, the Ratio OD(Variant)/OD(WT) in assay [2] worked out at 0.891.

B18: KB001 parental mouse Fab FASEBA variant VH A103L (Fab, V domains shown)
VH: B1 VH with S101F, A103L
VL: B1 VL
B18 had an OD450 nm in assay [1] of 0.783. In assay [2], the Ratio OD(Variant)/OD(WT) stood at 0.908.

B19: KB001 parental mouse Fab FASEBA variant VH Y106W (Fab, V domains shown)
VH: B1 VH with S101F, Y106W
VL: B1 VL
For the molecule B19, the OD450 nm in assay [1] is 0.733 and 0.748. Further, the Ratio OD(Variant)/OD(WT) in assay [2] was 0.953 and 0.973.

B20: H8 (antibody, V domains shown)
VH: QVQLQESGPGLVKPSETLSLTCTVSGFSLSIYSVHWIRQPPGKGLEWIGMIWGGGSSDYNSALKSRLTISKDTSKNQVSLKLSSVTAADTAVYYCARNGNFYAMDYWGQGTLVTVSS
VL: EIVLTQSPGTLSLSPGERATLSCTASSSVSSSFLHWYQQKPGQAPQLWIYSTSNLASGIPARFSGSGSGTDYTLTISRLEPEDFATYYCHQYHHSPYIYTFGGGTKLEIK
Broadly, the Kd is the free concentration of one partner at which half of the binding sites on the other are occupied at equilibrium, for simple one-to-one binding. High values mean a looser complex, low ones a tighter complex. What is called koff is the rate constant with which the complex falls apart. A higher koff goes with fast dissociation. By kon is commonly meant the second-order rate constant of association. Turning to B20, in assay [3], the Kd amounted to 1.33 nM, the koff was found to be 6.7e-05 s⁻¹ and the kon amounted to 50300 M⁻¹ s⁻¹.

B21: H5 K222A (antibody, V domains shown)
VH: B20 VH
VL: B20 VL with Q46R, W48L, A61D, Y72F, T86V
Turning to B21, in assay [4], the Kd was found to be 0.068 nM, the koff was 3.42e-06 s⁻¹ and the kon came out at 50200 M⁻¹ s⁻¹.

B22: H7 K222A (antibody, V domains shown)
VH: B20 VH
VL: B20 VL with A61D
Turning to B22, in assay [4], the Kd was determined as 0.795 nM, the koff came out at 4.36e-05 s⁻¹ and the kon was 54800 M⁻¹ s⁻¹.

B23: H7 (antibody, V domains shown)
VH: B20 VH
VL: B20 VL with A61D
Regarding B23, in assay [3], the Kd turned out to be 0.258 nM, the koff came out at 1.07e-05 s⁻¹ and the kon was 41400 M⁻¹ s⁻¹.

B24: H5 (antibody, V domains shown)
VH: B20 VH
VL: B20 VL with Q46R, W48L, A61D, Y72F, T86V
In assay [3], B24 showed a Kd of 0.825 nM, an off-rate (koff) of 4.5e-05 s⁻¹ and a kon of 54500 M⁻¹ s⁻¹.

B25: H14 (antibody, V domains shown)
VH: B20 VH with I48L, V92M
VL: B20 VL with A61D, T86V
On to B25, for which, in assay [3], the Kd is 0.939 nM, the koff is 4.89e-05 s⁻¹ and the kon stood at 52100 M⁻¹ s⁻¹.
